# Data: patent US20100105141, “Sulfonylurea-Responsive Repressor Proteins” (Pioneer Hi-Bred International, Inc., published 2010)
# Molecular target: L7-1F08-A11 (L7-A11, EsR2) (synthetic, UniProt P04483 SEQ:1-207, L55M,H64A,F67Y,F86M,H100C,R104G,P105F,K108Q,L113A,Q116S,L134M,S135Q,H139I,F140Y, …)
# Experiment: EMSA; 5 pmol DNA, 20 mM Tris-HCl pH 8.0, 10 mM EDTA, RT 0.5 h; released by ethametsulfuron dose-dependently, less by chlorsulfuron; no change with atc
# Conditions: chain copies: 2
# Experimental: Five pmol of TetO or control DNA was mixed with the indicated amounts (FIG. 7) of ethametsulfuron repressor protein (L7A11) or BSA control with or without inducer in complex buffer containing 20 mM Tris-HCl (pH8.0) and 10 mM EDTA. The mixture was incubated at room temperature for 0.5 hour before loading onto the gel. The reaction was electrophoresed on a Novex 6% DNA retardation gel (Invitrogen, EC6365BOX) at room temperature, 38 V in 0.5×TBE buffer for about 2 hours. DNA was detected by ethidium bromide staining.
binder,measurement,value
tetO 48 bp (dsDNA) DNA 1: CCTAATTTTTGTTGACACTCTATCATTGATAGAGTTATTTTACCACTC DNA 2: GAGTGGTAAAATAACTCTATCAATGATAGAGTGTCAACAAAAATTAGG,binding result,binds
